The results in this text go back to paper PMC10908827, “Structural insight into an Arl1–ArfGEF complex involved in Golgi recruitment of a GRIP-domain golgin” (Nature Communications, 2024).

Sequences and labels used below:
B2: S. cerevisiae full-length Gea2 with an N-terminal 6xHis-tag (natural protein, UniProt P39993 1-1459, looked up)
chain: MSDREFVTVDPVTIIIKECINLSTAMRKYSKFTSQSGVAALLGGGSEIFSNQDDYLAHTFNNLNTNKHNDPFLSGFIQLRLMLNKLKNLDNIDSLTILQPFLLIVSTSSISGYITSLALDSLQKFFTLNIINESSQNYIGAHRATVNALTHCRFEGSQQLSDDSVLLKVVFLLRSIVDSPYGDLLSNSIIYDVLQTILSLACNNRRSEVLRNAAQSTMIAVTVKIFSKLKTIEPVNVNQIYINDESYTNDVLKADTIGTNVESKEEGSQEDPIGMKVNNEEAISEDDGIEEEHIHSEKSTNGAEQLDIVQKTTRSNSRIQAYADDNYGLPVVRQYLNLLLSLIAPENELKHSYSTRIFGLELIQTALEISGDRLQLYPRLFTLISDPIFKSILFIIQNTTKLSLLQATLQLFTTLVVILGNNLQLQIELTLTRIFSILLDDGTANNSSSENKNKPSIIKELLIEQISILWTRSPSFFTSTFINFDCNLDRADVSINFLKALTKLALPESALTTTESVPPICLEGLVSLVDDMFDHMKDIDREEFGRQKNEMEILKKRDRKTEFIECTNAFNEKPKKGIPMLIEKGFIASDSDKDIAEFLFNNNNRMNKKTIGLLLCHPDKVSLLNEYIRLFDFSGLRVDEAIRILLTKFRLPGESQQIERIIEAFSSAYCENQDYDPSKISDNAEDDISTVQPDADSVFILSYSIIMLNTDLHNPQVKEHMSFEDYSGNLKGCCNHKDFPFWYLDRIYCSIRDKEIVMPEEHHGNEKWFEDAWNNLISSTTVITEIKKDTQSVMDKLTPLELLNFDRAIFKQVGPSIVSTLFNIYVVASDDHISTRMITSLDKCSYISAFFDFKDLFNDILNSIAKGTTLINSSHDDELSTLAFEYGPMPLVQIKFEDTNTEIPVSTDAVRFGRSFKGQLNTVVFFRIIRRNKDPKIFSKELWLNIVNIILTLYEDLILSPDIFPDLQKRLKLSNLPKPSPEISINKSKESKGLLSTFASYLKGDEEPTEEEIKSSKKAMECIKSSNIAASVFGNESNITADLIKTLLDSAKTEKNADNSRYFEAELLFIIELTIALFLFCKEEKELGKFILQKVFQLSHTKGLTKRTVRRMLTYKILLISLCADQTEYLSKLINDELLKKGDIFTQKFFATNQGKEFLKRLFSLTESEFYRGFLLGNENFWKFLRKVTAMKEQSESIFEYLNESIKTDSNILTNENFMWVLGLLDEISSMGAVGNHWEIEYKKLTESGHKIDKENPYKKSIELSLKSIQLTSHLLEDNNDLRKNEIFAIIQALAHQCINPCKQISEFAVVTLEQTLINKIEIPTNEMESVEELIEGGLLPLLNSSETQEDQKILISSILTIISNVYLHYLKLGKTSNETFLKILSIFNKFVEDSDIEKKLQQLILDKKSIEKGNGSSSHGSAHEQTPESNDVEIEATAPIDDNTDDDNKPKLSDVEKD
notes: Gea2, S. cerevisiae, Arf guanine nucleotide exchange factor, 1459 residues, amplified from genomic DNA of BY4741, vector pMCSG21; Homodimer by mass photometry and cryo-EM; also called Gea2 dimer

Data set [1] concerns the target T1, ΔNT17 Q72L Arl1 in the Arl1–Gea2 complex (Saccharomyces cerevisiae, UniProt P38116, Q72L).
T1 construct: Arl1 lacking N-terminal 17 residues, Q72L, C-terminal 6xHis; full-length Gea2 (1459 residues, dimer), N-terminal 6xHis; both from E. coli NiCo21(DE3); two Arl1 on one Gea2 dimer; with ARF guanine-nucleotide exchange factor 2
T1 sequence (P38116 18-183 Q72L): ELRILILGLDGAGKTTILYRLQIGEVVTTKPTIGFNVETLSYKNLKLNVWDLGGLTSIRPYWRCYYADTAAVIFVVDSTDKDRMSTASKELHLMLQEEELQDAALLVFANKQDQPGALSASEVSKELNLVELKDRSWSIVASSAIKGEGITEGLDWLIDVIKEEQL
T1 sequence (P39993 1-1459 partner): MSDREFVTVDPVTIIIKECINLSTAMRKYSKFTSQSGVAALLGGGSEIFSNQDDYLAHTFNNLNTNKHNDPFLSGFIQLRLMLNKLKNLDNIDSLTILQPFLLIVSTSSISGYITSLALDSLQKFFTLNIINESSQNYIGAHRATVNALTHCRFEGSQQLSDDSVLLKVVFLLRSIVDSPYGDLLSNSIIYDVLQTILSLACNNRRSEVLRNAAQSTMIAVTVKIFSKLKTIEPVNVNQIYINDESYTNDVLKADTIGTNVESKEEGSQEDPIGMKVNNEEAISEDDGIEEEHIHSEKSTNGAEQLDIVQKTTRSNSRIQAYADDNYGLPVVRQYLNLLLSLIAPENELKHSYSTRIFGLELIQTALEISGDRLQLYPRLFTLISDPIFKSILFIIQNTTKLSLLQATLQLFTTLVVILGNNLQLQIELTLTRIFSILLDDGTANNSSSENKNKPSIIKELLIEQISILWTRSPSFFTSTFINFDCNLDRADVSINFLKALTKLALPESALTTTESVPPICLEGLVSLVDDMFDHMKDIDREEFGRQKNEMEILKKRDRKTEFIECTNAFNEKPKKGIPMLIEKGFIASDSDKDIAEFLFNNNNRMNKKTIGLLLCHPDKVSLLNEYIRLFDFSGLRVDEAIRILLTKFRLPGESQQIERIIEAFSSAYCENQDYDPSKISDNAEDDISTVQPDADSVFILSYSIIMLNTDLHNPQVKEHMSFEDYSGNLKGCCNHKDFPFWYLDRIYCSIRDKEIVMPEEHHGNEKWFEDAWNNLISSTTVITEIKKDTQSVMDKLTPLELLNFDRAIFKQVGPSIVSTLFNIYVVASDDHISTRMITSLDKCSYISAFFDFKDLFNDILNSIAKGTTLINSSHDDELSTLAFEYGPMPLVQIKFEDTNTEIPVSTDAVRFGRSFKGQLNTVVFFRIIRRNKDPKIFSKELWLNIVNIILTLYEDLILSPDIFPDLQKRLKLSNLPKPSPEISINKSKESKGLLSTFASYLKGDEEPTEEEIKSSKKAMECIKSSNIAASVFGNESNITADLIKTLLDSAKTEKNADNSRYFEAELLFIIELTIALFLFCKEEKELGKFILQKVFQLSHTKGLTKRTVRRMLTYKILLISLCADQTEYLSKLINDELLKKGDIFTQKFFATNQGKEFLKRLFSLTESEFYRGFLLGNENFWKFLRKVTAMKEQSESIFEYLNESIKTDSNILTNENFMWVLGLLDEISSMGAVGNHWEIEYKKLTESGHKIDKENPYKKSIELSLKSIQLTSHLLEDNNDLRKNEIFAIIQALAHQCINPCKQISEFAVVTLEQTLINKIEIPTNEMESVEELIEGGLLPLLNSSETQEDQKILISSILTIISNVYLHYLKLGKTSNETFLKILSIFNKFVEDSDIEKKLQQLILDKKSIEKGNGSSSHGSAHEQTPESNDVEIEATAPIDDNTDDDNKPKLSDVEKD
Description: cryo-EM structure ([…] Å). The class given is binding. As to conditions: 1 mM GTP, 1 mM MgCl2, 1 mM TCEP, HEPES pH 7.4, 4 °C; Arl1 nucleotide site; Gea2 bound.

Data set [2] addresses B2. The data set can be described thus: SEC; 0.74 μM Gea2 (monomer) with 10-fold molar excess of ΔNT17 Q72L Arl1, 20 mM HEPES pH 7.4, 150 mM NaCl, 1 mM MgCl2, 1 mM TCEP, 1 mM GTP, 4 °C overnight; Superose 6 Increase 10/300 GL; peak fractions on SDS-PAGE. Conditions: both partners purified.
Data set [3] concerns the molecule itself. The data set can be described thus: mass photometry; 44.2 nM Gea2, Refeyn TwoMP, calibrated with β-amylase and thyroglobulin.

Take `Nc1nc2c(ncn2[C@@H]2O[C@H](COP(=O)(O)OP(=O)(O)OP(=O)(O)O)[C@@H](O)[C@H]2O)c(=O)[nH]1` [GTP]: the “cryo-EM structure (3.3 Å)” value in data set [1] is given as “far away from the γ-phosphate of the bound GTP in our structure”.

B1: N-terminal 17-residue truncated Q72L Arl1 with a C-terminal 6xHis-tag (natural protein, S. cerevisiae, UniProt P38116 18-183, looked up)
chain: ELRILILGLDGAGKTTILYRLQIGEVVTTKPTIGFNVETLSYKNLKLNVWDLGGLTSIRPYWRCYYADTAAVIFVVDSTDKDRMSTASKELHLMLQEEELQDAALLVFANKQDQPGALSASEVSKELNLVELKDRSWSIVASSAIKGEGITEGLDWLIDVIKEEQL
notes: Arl1, S. cerevisiae, the N-terminal 17 residues (amphipathic helix) removed, Q72L keeps it GTP-restricted; vector pMCSG28; mixed with Gea2 in buffer with 1 mM GTP; also called ΔNT17 Q72L Arl1; Arl1-GTP
In the case of B1, the binding result in data set [2] is given as “binds”.
Take B2: the “stoichiometry N” value in data set [3] came out at 2.
